{"source": "patent US20230056486", "proteins": {"B1": {"name": "clostripain (protein)", "chain": "NKNQKVTIMYYCDADNNLEGSLLNDIEEMKTGYKDSPNLNLIALVDRSPRYSSDEKVLGEDFSDTRLYKIEHNKANRLDGKNEFPEISTTSKYEANMGDPEVLKKFIDYCKSNYEADKYVLIMANHGGGAREKSNPRLNRAICWDDSNLDKNGEADCLYMGEISDHLTEKQSVDLLAFDACLMGTAEVAYQYRPGNGGFSADTLVASSPVVWGPGFKYDKIFDRIKAGGGTNNEDDLTLGGKEQNFDPATITNEQLGALFVEEQRDSTHANGRYDQHLSFYDLKKAESVKRAIDNLAVNLSNENKKSEIEKLRGSGIHTDLMHYFDEYSEGEWVEYPYFDVYDLCEKINKSENFSSKTKDLASNAMNKLNEMIVYSFGDPSNNFKEGKNGLSIFLPNGDKKYSTYYTSTKIPHWTMQSWYNSIDTVKYGLNPYGKLSWCKDGQDPEINKVGNWFELLDSWFDKTNDVTGGVNHYQW"}, "B2": {"name": "Proteinase K (protein)", "chain": "AAQTNAPWGLARISSTSPGTSTYYYDESAGQGSCVYVIDTGIEASHPEFEGRAQMVKTYYYSSRDGNGHGTHCAGTVGSRTYGVAKKTQLFGVKVLDDNGSGQYSTIIAGMDFVASDKNNRNCPKGVVASLSLGGGYSSSVNSAAARLQSSGVMVAVAAGNNNADARNYSPASEPSVCTVGASDRYDRRSSFSNYGSVLDIFGPGTSILSTWIGGSTRSISGTSMATPHVAGLAAYLMTLGKTTAASACRYIADTANKGDLSNIPFGTVNLLAYNNYQA"}}, "target": "T1, (GR)10 dipeptide repeat peptide", "T1 chain": "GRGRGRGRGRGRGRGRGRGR", "note": "Where “and” joins values, the source holds several entries; their conditions need not be identical. Equal entries are not always repeated."}
{"protein": "B1", "values": [{"measurement": "(GR)10 concentration left at 0 min (LC/MS; 50 µM start; TFA added before enzyme)", "result": "39.7 µM and 37.9 µM"}, {"measurement": "(GR)10 concentration left at 30 min (LC/MS; 50 µM start)", "result": "BLQ"}, {"measurement": "(GR)10 concentration left at 60 min (LC/MS; 50 µM start)", "result": "BLQ"}, {"measurement": "(GR)10 concentration left at 120 min (LC/MS; 50 µM start)", "result": "BLQ"}, {"measurement": "(GR)10 left in CSF; Clostripain + DTT-Immobilized-5 min reaction (LC/MS; 200 µM (GR)10 in human CSF) (normalized µM)", "result": 58}, {"measurement": "(GR)10 left in CSF; Clostripain + DTT-Immobilized-60 min reaction (LC/MS; 200 µM (GR)10 in human CSF) (normalized µM)", "result": -0}, {"measurement": "(GR)10 left in CSF; Clostripain-Immobilized-5 min reaction, no DTT (LC/MS; 200 µM (GR)10 in human CSF) (normalized µM)", "result": 395}, {"measurement": "(GR)10 left in CSF; Clostripain-Immobilized-60 min reaction, no DTT (LC/MS; 200 µM (GR)10 in human CSF) (normalized µM)", "result": -0}, {"measurement": "(GR)10 left; Clostripain + DTT-Immobilized-5 min reaction (LC/MS) (µM (normalized to GR concentration))", "result": -0}, {"measurement": "(GR)10 left; Clostripain + DTT-immobilized-60 min reaction (LC/MS) (µM (normalized to GR concentration))", "result": -0}, {"measurement": "(GR)10 left; Clostripain + DTT-in solution-5 min reaction (LC/MS) (µM (normalized to GR concentration))", "result": 5.7}, {"measurement": "(GR)10 left; Clostripain + DTT-in solution-60 min reaction (LC/MS) (µM (normalized to GR concentration))", "result": -0}, {"measurement": "(GR)10 left; Clostripain + DTT-resin wash from 5 min reaction (LC/MS) (µM (normalized to GR concentration))", "result": -0}, {"measurement": "(GR)10 left; Clostripain + DTT-resin wash from 60 min reaction (LC/MS) (µM (normalized to GR concentration))", "result": -0}, {"measurement": "(GR)10 left; Clostripain-Immobilized-5 min reaction, no DTT (LC/MS)", "result": 0, "unit": "µM"}, {"measurement": "(GR)10 left; Clostripain-immobilized-60 min reaction, no DTT (LC/MS)", "result": 0, "unit": "µM"}, {"measurement": "(GR)10 left; Clostripain-in solution-5 min reaction, no DTT (LC/MS)", "result": 12.4, "unit": "µM"}, {"measurement": "(GR)10 left; Clostripain-in solution-60 min reaction, no DTT (LC/MS)", "result": 0, "unit": "µM"}, {"measurement": "(GR)10 left; Clostripain-resin wash from 5 min reaction, no DTT (LC/MS)", "result": 0, "unit": "µM"}, {"measurement": "(GR)10 left; Clostripain-resin wash from 60 min reaction, no DTT (LC/MS)", "result": 0, "unit": "µM"}]}
{"protein": "B2", "values": [{"measurement": "(GR)10 concentration left at 0 min (LC/MS; 50 µM start; TFA added before enzyme)", "result": "44.9 µM and 49.4 µM"}, {"measurement": "(GR)10 concentration left at 2.5 min (LC/MS; 50 µM start)", "result": "55.8 µM and 55.4 µM"}, {"measurement": "(GR)10 concentration left at 5 min (LC/MS; 50 µM start)", "result": "54.4 µM and 48.8 µM"}, {"measurement": "(GR)10 concentration left at 10 min (LC/MS; 50 µM start)", "result": "50.3 µM and 44.1 µM"}]}
